This note sets out measurements from paper PMC13399123, “Interaction of HS1BP3 with cortactin modulates TKS5 localisation, cell secretion and cancer malignancy” (Molecular Oncology, 2026).

The target in this experiment is T1, full-length MBP-HS1BP3 (UniProt Q53T59 1-392).
T1 construct: HS1BP3, full length; also called HS1BP3 FL; MBP HS1BP3 full-length WT; source: SoluBL21 E. coli, purified (amylose resin, eluted with 10 mM maltose)
T1 sequence (looked up): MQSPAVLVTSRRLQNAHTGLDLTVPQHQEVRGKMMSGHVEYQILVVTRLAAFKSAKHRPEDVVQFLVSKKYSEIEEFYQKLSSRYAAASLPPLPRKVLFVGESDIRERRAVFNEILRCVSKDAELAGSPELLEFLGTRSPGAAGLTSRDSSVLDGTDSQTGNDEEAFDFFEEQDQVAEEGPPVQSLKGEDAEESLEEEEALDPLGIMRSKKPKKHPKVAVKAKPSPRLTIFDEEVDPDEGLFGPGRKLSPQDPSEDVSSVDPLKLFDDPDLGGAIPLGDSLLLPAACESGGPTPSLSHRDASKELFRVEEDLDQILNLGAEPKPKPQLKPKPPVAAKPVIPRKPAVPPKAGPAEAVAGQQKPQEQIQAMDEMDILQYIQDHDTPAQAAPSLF
The experiment in a line: pull-down; equal concentrations of GST-SH3 (on glutathione beads) and purified MBP-tagged HS1BP3 proteins incubated 2 h at 4 °C, six washes with GST-buffer, anti-MBP immunoblot. Particulars: both partners purified. (In general: Immunoblotting shows a protein as a band on a membrane.)

B1: GST-SH3 (SH3 domain of cortactin fused to GST) (domain or fragment)
chain: not shown
notes: SH3 domain of cortactin (CTTN); Q14247 amino acids 492-550 are printed only for the SH3 fragment used in the AlphaFold model; Held on glutathione beads as bait; also called GST-SH3 (cortactin); source: SoluBL21 E. coli, purified on Glutathione Sepharose 4B beads
As for B1, the binding result is “binds”.
